One experiment has as its target SHC3 SH2 domain (human) (UniProt Q92529). Nature of the experiment: SPR; Biacore 3000; 6X His SH2 proteins held on a Ni-NTA chip, dye-free peptides in solution, equilibrium.
In experiment [1] the target is PIK3R3 C-terminal SH2 domain (human). The description is as above.
Experiment [2] deals with PIK3R1 N-terminal SH2 domain (human). Described as above.
The target in experiment [3] is TNS3 SH2 domain (human) (UniProt Q68CZ2). The experiment is described as above.
Chain of TNS3 SH2 domain (human) (Q68CZ2 1172-1282): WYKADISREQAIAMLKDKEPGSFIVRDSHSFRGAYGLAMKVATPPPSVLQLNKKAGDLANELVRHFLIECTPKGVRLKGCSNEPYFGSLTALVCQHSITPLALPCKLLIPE
Experiment [4] has as its target PLCG1 C-terminal SH2 domain (human). Described as above.
Experiment [5] concerns the target MET pY1313 phosphopeptide, rhodamine-labelled. Nature of the experiment: fluorescence polarisation; saturation binding in solution: rhodamine peptide fixed at 10 nM, protein titrated 0.002-10 uM, 20 min at room temperature; assay buffer 20 mM HEPES, 100 mM KCl, 0.1% Tween-20, 5 mM DTT, pH 7.8; apparent KD.
For experiment [6], the target named is ErbB1 pY900 phosphopeptide, rhodamine-labelled (human). The description is as above.
Experiment [7] has as its target ErbB1 pY978 phosphopeptide, rhodamine-labelled (human). Described as above.
Experiment [8] concerns the target ErbB4 pY833 phosphopeptide, rhodamine-labelled (human). Described as above.
Experiment [9] deals with ErbB1 pY801 phosphopeptide, rhodamine-labelled (human). The description is as above.
Experiment [10] deals with SYK N-terminal SH2 domain (human). Kind of experiment: peptide or protein array; SH2/PTB proteins spotted on aldehyde slides, rhodamine peptide titrated in buffer B (20 mM HEPES, 100 mM KCl, 0.1% Tween-20, 5 mM DTT, pH 7.8), 1 h at room temperature; replicate assays.
The target in the next experiment is LCK SH2 domain (human) (UniProt P06239). Described as above.
Chain of LCK SH2 domain (human) (P06239 127-224): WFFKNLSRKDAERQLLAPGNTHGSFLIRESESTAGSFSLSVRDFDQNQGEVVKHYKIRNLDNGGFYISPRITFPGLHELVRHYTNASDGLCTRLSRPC
The target in experiment [11] is TNS3 SH2 domain (human) (UniProt Q68CZ2). The experiment is described as above.
The target of the next experiment is TEC SH2 domain (human) (UniProt P42680). The experiment is described as above.
Chain of TEC SH2 domain (human) (P42680 247-345): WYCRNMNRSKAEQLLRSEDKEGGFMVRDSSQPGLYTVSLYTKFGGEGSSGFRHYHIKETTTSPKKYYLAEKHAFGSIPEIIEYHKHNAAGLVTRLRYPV
A further experiment has as its target ITK SH2 domain (human) (UniProt Q08881). The experiment is described as above.
The target in the next experiment is GRAP2 SH2 domain (human) (UniProt O75791). Described as above.
Chain of GRAP2 SH2 domain (human) (O75791 58-149): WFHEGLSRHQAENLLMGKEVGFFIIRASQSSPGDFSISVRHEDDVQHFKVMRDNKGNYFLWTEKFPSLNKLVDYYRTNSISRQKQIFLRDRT
The target in experiment [12] is SH2D3A SH2 domain (human) (UniProt Q9BRG2). The experiment is described as above.
Chain of SH2D3A SH2 domain (human) (Q9BRG2 15-114): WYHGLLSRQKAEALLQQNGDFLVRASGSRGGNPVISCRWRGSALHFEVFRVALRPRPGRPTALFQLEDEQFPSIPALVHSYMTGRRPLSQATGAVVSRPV
For experiment [13], the target named is PLCG1 tandem SH2 domains (human). The experiment is described as above.
In another experiment the target is SRC SH2 domain (human) (UniProt P12931). The experiment is described as above.
In the next experiment the target is GRB7 SH2 domain (human) (UniProt Q14451). The description is as above.
Chain of GRB7 SH2 domain (human) (Q14451 431-527): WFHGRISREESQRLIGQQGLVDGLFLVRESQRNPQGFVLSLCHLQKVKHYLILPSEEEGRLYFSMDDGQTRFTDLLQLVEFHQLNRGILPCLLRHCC
The target of experiment [14] is ErbB4 pY906 phosphopeptide, rhodamine-labelled (human). Kind of experiment: fluorescence polarisation; saturation binding in solution: rhodamine peptide fixed at 10 nM, protein titrated 0.002-10 uM, 20 min at room temperature; assay buffer 20 mM HEPES, 100 mM KCl, 0.1% Tween-20, 5 mM DTT, pH 7.8; apparent KD.
For experiment [15], the target named is KIT pY936 phosphopeptide, rhodamine-labelled. The description is as above.
Experiment [16] deals with ErbB2 pY685 phosphopeptide, rhodamine-labelled (human). Described as above.
Another experiment addresses TNS1 SH2 domain (human) (UniProt Q9HBL0). Nature of the experiment: peptide or protein array; SH2/PTB proteins spotted on aldehyde slides, rhodamine peptide titrated in buffer B (20 mM HEPES, 100 mM KCl, 0.1% Tween-20, 5 mM DTT, pH 7.8), 1 h at room temperature; replicate assays.
The next experiment deals with BLK SH2 domain (human) (UniProt P51451). The experiment is described as above.
Chain of BLK SH2 domain (human) (P51451 124-220): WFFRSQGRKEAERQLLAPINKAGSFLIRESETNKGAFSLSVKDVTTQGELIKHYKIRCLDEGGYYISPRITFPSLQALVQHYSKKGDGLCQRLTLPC
For another experiment, the target named is FES SH2 domain (human) (UniProt P07332). The experiment is described as above.
Chain of FES SH2 domain (human) (P07332 460-549): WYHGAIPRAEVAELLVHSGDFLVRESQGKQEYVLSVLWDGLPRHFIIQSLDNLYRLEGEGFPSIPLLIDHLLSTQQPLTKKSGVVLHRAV
Experiment [17] addresses PIK3R3 tandem SH2 domains (human). Described as above.
For the next experiment, the target named is YES1 SH2 domain (human) (UniProt P07947). The experiment is described as above.
Chain of YES1 SH2 domain (human) (P07947 158-255): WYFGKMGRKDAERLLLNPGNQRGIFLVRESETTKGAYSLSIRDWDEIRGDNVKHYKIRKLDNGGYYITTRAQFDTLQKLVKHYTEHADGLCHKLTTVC
Experiment [18] concerns the target SH3BP2 SH2 domain (human) (UniProt P78314). The experiment is described as above.
The target of experiment [19] is PLCG2 tandem SH2 domains (human). The experiment is described as above.
Experiment [20] has as its target RASA1 N-terminal SH2 domain (human) (UniProt P20936). Described as above.
The target of experiment [21] is SYK tandem SH2 domains (human). The experiment is described as above.

Values joined by “and” are separate entries in the source; they are usually repeats but may differ in a detail not shown here. Identical values can stand only once.

Chain of TNS1 SH2 domain (human) (Q9HBL0 1567-1676): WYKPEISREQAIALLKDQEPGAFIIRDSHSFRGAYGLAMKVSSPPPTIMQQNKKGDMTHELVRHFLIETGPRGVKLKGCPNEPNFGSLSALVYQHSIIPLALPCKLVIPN
Chain of ITK SH2 domain (human) (Q08881 239-338): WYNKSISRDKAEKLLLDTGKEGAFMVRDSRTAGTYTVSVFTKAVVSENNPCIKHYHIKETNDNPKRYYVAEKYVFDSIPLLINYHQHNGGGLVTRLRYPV
Chain of SHC3 SH2 domain (human) (Q92529 499-590): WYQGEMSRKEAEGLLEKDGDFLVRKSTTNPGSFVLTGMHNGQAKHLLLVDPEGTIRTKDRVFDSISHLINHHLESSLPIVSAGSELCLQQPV
Chain of RASA1 N-terminal SH2 domain (human) (P20936 whole entry, the tested form may be a part): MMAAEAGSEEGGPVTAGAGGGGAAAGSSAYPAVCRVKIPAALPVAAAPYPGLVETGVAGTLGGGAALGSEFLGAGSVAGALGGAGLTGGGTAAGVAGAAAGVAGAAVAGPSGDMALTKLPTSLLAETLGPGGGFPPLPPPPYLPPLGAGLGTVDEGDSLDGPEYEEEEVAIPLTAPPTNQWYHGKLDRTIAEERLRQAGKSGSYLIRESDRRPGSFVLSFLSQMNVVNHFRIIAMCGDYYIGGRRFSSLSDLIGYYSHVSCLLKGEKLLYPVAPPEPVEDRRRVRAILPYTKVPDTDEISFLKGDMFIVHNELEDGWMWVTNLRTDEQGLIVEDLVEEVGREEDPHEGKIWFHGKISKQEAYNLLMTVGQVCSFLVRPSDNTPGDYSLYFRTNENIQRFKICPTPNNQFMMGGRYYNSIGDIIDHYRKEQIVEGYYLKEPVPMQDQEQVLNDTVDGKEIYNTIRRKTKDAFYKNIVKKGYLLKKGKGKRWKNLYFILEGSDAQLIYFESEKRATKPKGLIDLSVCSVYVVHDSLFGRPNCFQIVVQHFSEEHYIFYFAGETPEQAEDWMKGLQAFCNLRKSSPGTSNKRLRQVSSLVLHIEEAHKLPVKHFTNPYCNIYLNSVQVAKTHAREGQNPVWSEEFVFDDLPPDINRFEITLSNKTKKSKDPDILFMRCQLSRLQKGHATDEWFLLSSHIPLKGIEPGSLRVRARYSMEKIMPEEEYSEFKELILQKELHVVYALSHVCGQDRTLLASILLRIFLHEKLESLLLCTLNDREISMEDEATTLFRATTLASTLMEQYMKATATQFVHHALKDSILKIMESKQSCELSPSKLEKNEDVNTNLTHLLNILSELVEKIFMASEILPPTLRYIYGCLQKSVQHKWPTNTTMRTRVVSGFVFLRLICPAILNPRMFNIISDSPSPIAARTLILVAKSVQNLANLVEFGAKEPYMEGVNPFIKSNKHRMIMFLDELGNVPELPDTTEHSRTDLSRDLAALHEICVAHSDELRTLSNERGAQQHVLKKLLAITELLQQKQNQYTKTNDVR
Chain of SH3BP2 SH2 domain (human) (P78314 457-555): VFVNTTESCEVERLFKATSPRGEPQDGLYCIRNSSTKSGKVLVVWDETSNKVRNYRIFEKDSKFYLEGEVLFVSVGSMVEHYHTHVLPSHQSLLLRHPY

In the case of ErbB4 pY906 phosphopeptide, dye-free, the Kd is 6710 nM with SHC3 SH2 domain (human) and 566 nM in [1].

As for ErbB1 pY801 phosphopeptide, dye-free, the Kd in experiment [2] came to 2800 nM; in the experiment with TNS3 SH2 domain (human) [3], 916 nM; in experiment [4], 2330 nM.

For “PLCG1 C-terminal SH2 domain (domain or fragment)”, the Kd is 2280 nM in experiment [5]; 15500 nM in experiment [6]; 1370 nM in experiment [7]; 4730 nM in [8]; 9440 nM in experiment [9].

As to “ErbB3 pY789 phosphopeptide, rhodamine-labelled, for protein microarrays”, the Kd in experiment [10] was 609 nM and 1330 nM; with LCK SH2 domain (human) it was 550 nM and 1140 nM and 1120 nM; in the experiment with TNS3 SH2 domain (human) [11] it was 802 nM; with TEC SH2 domain (human) it was 1660 nM; in the experiment with ITK SH2 domain (human) it was 1160 nM; with GRAP2 SH2 domain (human), 1310 nM. Also, the Kd in [12] was 170 nM and 401 nM and 402 nM; in [13] it was 380 nM; in the experiment with SRC SH2 domain (human), 1850 nM and 424 nM; with GRB7 SH2 domain (human), 1190 nM.

Take “PIK3R3 C-terminal SH2 domain (domain or fragment)”: the Kd is 255 nM in experiment [5]; 5830 nM in experiment [6]; 1840 nM in experiment [14]; 8380 nM in experiment [15]; 4430 nM in [16].

“ErbB3 pY1132 phosphopeptide, rhodamine-labelled, for protein microarrays”: the Kd with TNS1 SH2 domain (human) is 1.44 nM; with BLK SH2 domain (human) it was 199 nM; in experiment [10] it was 2400 nM; in the experiment with FES SH2 domain (human), 3200 nM; in experiment [17] it was 7.73 nM; with YES1 SH2 domain (human) it was 735 nM and 2260 nM. Also, the Kd in experiment [18] is 6400 nM; in experiment [19] it was 1190 nM; in [20] it was 5150 nM; with GRB7 SH2 domain (human) it was 10 nM; in [21] it was 785 nM and 4980 nM.
